This note sets out measurements from publication PMC6200776.

For orientation: Kd means the constant that tells how readily two partners part at equilibrium. One may read the koff as a measure of how fast the partners let go of each other. In general, kon refers to the second-order rate constant of association. Low values mean slower complex formation, high ones faster complex formation. What is called stoichiometry N is a count of units in the complex or per binding partner. In general, Ki refers to the equilibrium dissociation constant of an inhibitor or competing ligand from its target. A word on the pKi: it is the Ki on a negative log10 scale, so that one unit is a factor of ten. Higher therefore signals a low Ki.

Experiment [1] deals with NanoLuc-VEGFR2 (UniProt P35968). The experiment can be described thus: FRET or BRET; NanoBRET saturation: live HEK293T cells stably expressing the N-terminal NanoLuc receptor; increasing fluorescent VEGF with or without 100 nM unlabelled VEGF; 60 min, 37°C, HBSS/0.1% BSA. In general terms: In BRET a luciferase serves as donor, and the signal depends on an acceptor being close.

Experiment [2] shares this target. The experiment can be described thus: FRET or BRET; NanoBRET kinetics: live HEK293T cells with NanoLuc receptor, furimazine 5 min before 1-20 nM fluorescent VEGF, read every 30 s at 37°C; global fit of five concentrations; KD as koff/kon.
Another experiment deals with VEGF121a-TMR. In words: fluorescence SDS-PAGE with and without DTT; purified VEGF-TMR isoforms in the presence or absence of 100 mM DTT; dimer in non-reducing conditions.
In experiment [3] the target is NanoLuc-NRP1 (UniProt O14786). In words: FRET or BRET; NanoBRET full displacement: live HEK293T cells with NanoLuc receptor; increasing unlabelled VEGF (R&D Systems) added together with five fixed concentrations of fluorescent VEGF; 60 min, 37°C, HBSS/0.1% BSA.
Experiment [4] concerns the target NanoLuc-NRP1 (UniProt O14786). In words: FRET or BRET; NanoBRET saturation: live HEK293T cells stably expressing the N-terminal NanoLuc receptor; increasing fluorescent VEGF with or without 100 nM unlabelled VEGF; 60 min, 37°C, HBSS/0.1% BSA.
Experiment [5] has as its target NanoLuc-NRP1 (UniProt O14786). In words: FRET or BRET; NanoBRET kinetics: live HEK293T cells with NanoLuc receptor, furimazine 5 min before 1-20 nM fluorescent VEGF, read every 30 s at 37°C; global fit of five concentrations; KD as koff/kon.
The target in experiment [6] is NanoLuc-VEGFR2 (UniProt P35968).
In another experiment the target is VEGF165b-TMR. In words: fluorescence SDS-PAGE with and without DTT; purified VEGF-TMR isoforms in the presence or absence of 100 mM DTT; dimer in non-reducing conditions.

Chain of UniProt O14786 (O14786 22-923): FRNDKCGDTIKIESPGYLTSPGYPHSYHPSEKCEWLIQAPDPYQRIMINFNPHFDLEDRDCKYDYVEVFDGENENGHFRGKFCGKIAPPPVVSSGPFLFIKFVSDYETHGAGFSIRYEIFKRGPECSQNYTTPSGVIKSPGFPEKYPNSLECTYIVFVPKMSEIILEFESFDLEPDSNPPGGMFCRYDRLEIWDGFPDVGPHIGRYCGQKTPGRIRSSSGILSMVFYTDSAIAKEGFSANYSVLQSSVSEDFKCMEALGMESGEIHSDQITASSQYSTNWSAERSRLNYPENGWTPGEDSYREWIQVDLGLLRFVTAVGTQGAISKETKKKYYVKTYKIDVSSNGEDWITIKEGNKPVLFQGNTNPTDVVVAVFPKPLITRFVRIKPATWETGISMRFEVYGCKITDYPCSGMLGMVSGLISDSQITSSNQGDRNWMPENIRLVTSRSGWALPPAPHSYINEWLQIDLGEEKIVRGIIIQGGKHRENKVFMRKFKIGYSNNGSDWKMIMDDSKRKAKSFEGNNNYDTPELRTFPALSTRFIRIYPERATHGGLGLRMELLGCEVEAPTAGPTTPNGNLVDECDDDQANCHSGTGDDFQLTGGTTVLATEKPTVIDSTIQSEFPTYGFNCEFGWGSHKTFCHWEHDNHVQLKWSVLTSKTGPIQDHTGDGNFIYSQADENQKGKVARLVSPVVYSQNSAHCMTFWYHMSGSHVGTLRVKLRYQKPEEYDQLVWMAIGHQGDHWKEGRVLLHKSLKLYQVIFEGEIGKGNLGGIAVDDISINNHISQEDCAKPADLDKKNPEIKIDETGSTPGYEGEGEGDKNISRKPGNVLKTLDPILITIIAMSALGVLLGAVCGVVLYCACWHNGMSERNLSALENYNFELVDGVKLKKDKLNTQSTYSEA
Chain of UniProt P35968 (P35968 20-1356): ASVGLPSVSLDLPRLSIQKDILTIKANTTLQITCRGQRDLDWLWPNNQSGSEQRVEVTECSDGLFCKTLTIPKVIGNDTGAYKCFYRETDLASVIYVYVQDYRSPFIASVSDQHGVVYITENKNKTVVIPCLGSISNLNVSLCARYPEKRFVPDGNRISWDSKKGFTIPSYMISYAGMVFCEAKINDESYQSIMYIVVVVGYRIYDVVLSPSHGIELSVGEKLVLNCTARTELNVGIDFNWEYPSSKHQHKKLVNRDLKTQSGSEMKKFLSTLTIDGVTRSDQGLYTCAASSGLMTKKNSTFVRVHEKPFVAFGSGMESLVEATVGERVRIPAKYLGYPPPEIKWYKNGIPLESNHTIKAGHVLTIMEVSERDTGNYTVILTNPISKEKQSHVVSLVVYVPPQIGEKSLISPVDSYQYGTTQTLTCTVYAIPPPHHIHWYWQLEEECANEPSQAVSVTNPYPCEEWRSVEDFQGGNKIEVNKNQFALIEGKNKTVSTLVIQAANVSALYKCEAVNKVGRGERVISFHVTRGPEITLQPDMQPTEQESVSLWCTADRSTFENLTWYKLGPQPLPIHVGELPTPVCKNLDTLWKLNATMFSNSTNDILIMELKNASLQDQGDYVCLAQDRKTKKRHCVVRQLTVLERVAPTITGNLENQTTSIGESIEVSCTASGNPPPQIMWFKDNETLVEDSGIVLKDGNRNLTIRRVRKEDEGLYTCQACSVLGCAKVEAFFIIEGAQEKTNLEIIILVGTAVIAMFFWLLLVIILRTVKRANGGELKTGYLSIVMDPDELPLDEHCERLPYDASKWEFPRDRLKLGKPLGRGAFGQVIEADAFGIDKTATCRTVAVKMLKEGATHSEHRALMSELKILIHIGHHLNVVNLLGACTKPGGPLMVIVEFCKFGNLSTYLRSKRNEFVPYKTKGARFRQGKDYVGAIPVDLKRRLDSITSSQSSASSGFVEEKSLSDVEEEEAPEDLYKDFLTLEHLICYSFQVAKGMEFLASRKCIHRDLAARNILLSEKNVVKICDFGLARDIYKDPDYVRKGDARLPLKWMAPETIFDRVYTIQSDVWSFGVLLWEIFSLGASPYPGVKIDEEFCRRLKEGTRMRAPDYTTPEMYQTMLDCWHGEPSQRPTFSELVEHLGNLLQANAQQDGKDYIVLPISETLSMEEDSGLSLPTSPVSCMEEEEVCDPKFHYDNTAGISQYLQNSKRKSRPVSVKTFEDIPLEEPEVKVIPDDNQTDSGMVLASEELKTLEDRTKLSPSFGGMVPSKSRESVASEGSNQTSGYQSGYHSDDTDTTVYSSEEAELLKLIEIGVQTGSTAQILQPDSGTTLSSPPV

The substance VEGF121a-TMR (ligand) gave a Kd with NanoLuc-VEGFR2 [1] of 5.54 nM. Further, in the experiment with NanoLuc-VEGFR2 [2], the Kd was found to be 5.75 nM, the koff amounted to 0.000833 s⁻¹ and the kon is 142000 M⁻¹ s⁻¹. The stoichiometry N with VEGF121a-TMR was 2.

For the substance VEGF165a (ligand), in the experiment with NanoLuc-NRP1 [3], the Ki was found to be 0.1 nM and the pKi is 9.54.

Consider VEGF165a-TMR (ligand), for which the Kd stood at 4.41 nM in the experiment with NanoLuc-NRP1 [4]; 2.03 nM in the experiment with NanoLuc-VEGFR2 [1]; 4.95 nM with NanoLuc-NRP1 [5]; 6.64 nM with NanoLuc-VEGFR2 [2]; 1.11 nM with NanoLuc-NRP1 [3]. Moreover, the values for the koff with NanoLuc-NRP1 [5] and with NanoLuc-VEGFR2 [2] were 0.00433 s⁻¹ and 0.001 s⁻¹, respectively. Besides, the kon with NanoLuc-NRP1 [5] is 1.18e+06 M⁻¹ s⁻¹; in the experiment with NanoLuc-VEGFR2 [2], 257000 M⁻¹ s⁻¹.

For VEGF165b-TMR (ligand), the Kd with NanoLuc-VEGFR2 [1] was 9.53 nM. The pEC50 of the NFAT reporter gene response, as told again in the discussion with another number in the experiment with NanoLuc-VEGFR2 [6] was 8.28. In the experiment with NanoLuc-VEGFR2 [2], the dissociation constant (Kd) was 11.3 nM, the koff came out at 0.001 s⁻¹ and the kon was found to be 122000 M⁻¹ s⁻¹. The same substance yielded a stoichiometry N in the experiment with VEGF165b-TMR of 2.
